# Assay results reported in patent publication US20220387487A1, “COMPOSITIONS AND METHODS FOR TREATMENT OF CANCER” (Aleta Biotherapeutics Inc., priority 2019, published 2022).
# B1: #330: fusion protein comprised of a CD19 variant and an anti-CLL-1 VHH (2H3); SEQ ID NO:305 (protein)
# chain: MEFGLSWVFLVALFRGVQCQVQLQESGGGLVQAGGSLRLSCVASGSIRSINVMGWYRQAPGKQRELVAACASDGNTYYADSVKGRFTISRDNAEKTVYLQMNNLKPDDTAVYYCDANSRGNYYSGQGTQVTVSSTSGPGGQGAGGGGSGGGGSGGGGSGGGGSPEEPLVVKVEEGDTAALWCLKGTSDGPTQQLTWSRESPLKPFLKYSLGVPGLGVHVRPDAISVVIRNVSQQMGGFYLCQPGPPSEKAWQPGWTVNVEGSGELFRWNVSDLGGLGCGLKNRSSEGPSSPSGKLMSPKLYVWAKDRPEIWEGEPPCLPPRDSLNQSLSRDLTVAPGSTLWLSCGVPPDSVSRGPLSWTHVHPKGPKSLLSLELKDDRPARDMWVMGTSLMLPRATAQDAGKWYCHRGNLTMSFHLEITARPSRHHHHHH
# B2: #440: fusion protein comprising an anti-CLEC12A VHH, an anti-CD33 scFv, and a CD19 ECD; SEQ ID NO:321 (protein)
# chain: MEFGLSWVFLVALFRGVQCQVQLVQSGAEVKKPGESVKVSCKASGYTFTNYGMNWVKQAPGQGLEWMGWINTYTGEPTYADKFQGRVTMTTDTSTSTAYMEIRNLGGDDTAVYYCARWSWSDGYYVYFDYWGQGTSVTVSSGGGGSGGGGSGGGGSDIVMTQSPDSLTVSLGERTTINCKSSQSVLDSSTNKNSLAWYQQKPGQPPKLLLSWASTRESGIPDRFSGSGSGTDFTLTIDSPQPEDSATYYCQQSAHFPITFGQGTRLEIKGGGGSGGGGSGGGGSGGGGSQVQLQESGGGLVQAGGSLRLSCVASGSIRSINVMGWYRQAPGKQRELVAACASDGNTYYADSVKGRFTISRDNAEKTVYLQMNNLKPDDTAVYYCDANSRGNYYSGQGTQVTVSSTSGPGGQGAGGGGSGGGGSGGGGSGGGGSPEEPLVVKVEEGDTAALWCLKGTSDGPTQQLTWSRESPLKPFLKYSLGVPGLGVHVRPDAISVVIRNVSQQMGGFYLCQPGPPSEKAWQPGWTVNVEGSGELFRWNVSDLGGLGCGLKNRSSEGPSSPSGKLMSPKLYVWAKDRPEIWEGEPPCLPPRDSLNQSLSRDLTVAPGSTLWLSCGVPPDSVSRGPLSWTHVHPKGPKSLLSLELKDDRPARDMWVMGTSLMLPRATAQDAGKWYCHRGNLTMSFHLEITARPSRHHHHHH
# Columns and labels:
# Molm14 cells = assay: CAR-CD19 T cell cytotoxicity bridged by purified fusion protein, luciferase Molm14 cells; type: cell-based; conditions: FIG. 21A
# Protocol: To test cytoxicity, luciferase labeled Molm14 or U937 cells were targeted for cytotoxic killing using a CAR19 T cell preparation and the purified proteins #330, #410 and #440 added in a dose titration. 1×10^4 target cells were added to each well (96 clear round bottom plate) in RPMI medium. The protein titration was started at 180 ng/ml with 3-fold serial titration into corresponding wells (25 μl per well). CAR-CD19 T cells were added at various E:T ratios to the target cells. After 48 hours the plate was centrifuged (450 RCF for 5 minutes) and the cells were washed 1× with PBS then centrifuged a second time. 20 μl lysis buffer was added into each well. The cell lysate was transferred to a 96 opaque white plate. The plates were read in a luminometer with an injector (Glomax Multi Detection System, Promega). The percent killing was calculated based upon the average loss of luminescence of the experimental vs the control (target cell only or target cell plus fusion protein only).
# CD33 = CD33 (Homo sapiens, UniProt P20138); assay: ELISA of fusion proteins, FMC63 coat, biotinylated CD33 detection; type: binding
# Protocol: ELISAs for binding to CD19, CLEC12A and CD33 were run using purified fusion proteins #330, #410 and #440. A 96 well plate was coated with 1.0 μg/ml FMC63 (Novus) in 0.1 M carbonate, pH 9.5 overnight at 4° C. The plate was blocked with 0.3% non-fat milk in TBS for 1 hour at room temperature. After washing in TBST (0.1 M Tris, 0.5 M NaCl, 0.05% Tween20) 3 times, the fusion protein supernatant was titrated using 3-fold dilutions in 1% BSA in TBS and incubated 1 hour at room temperature. For detection by anti-His, after washing 3 times in TBST, HRP-anti-His (BioLegend) was added at 1:2000. The plate was incubated at room temperature in the dark for 1 hour. For detection of binding to CLEC12A, biotinylated CLEC12A was added at 0.5 μg/ml and incubated for 1 hour. This was followed by adding HRP-SA (Pierce) at 1:2000 and incubated at room temperature in the dark for 1 hour. For testing binding to CD33, biotinylated CD33 was added at 0.5 μg/ml and incubated for 1 hour. This was followed by adding HRP-SA (Pierce) at 1:2000 and incubated at room temperature in the dark for 1 hour. Then, 1-Step Ultra TMB-ELISA (Thermo Fisher) solution, was added and the plate read at […]. Curves were fit using a four-parameter logistic (4 PL) regression to calculate the EC50.
# U937 cells = assay: CAR-CD19 T cell cytotoxicity bridged by purified fusion protein, luciferase U937 cells; type: cell-based; conditions: FIG. 21B
# Protocol: Several fusion proteins were purified and evaluated for their ability to bridge killing of CLL-1 expressing cells by CAR-T cells that target CD19. Luciferase was introduced to U937 cells and […] by lentiviral transduction. On day 1 U937 cells were seeded at 1×10^4 per well of a round-bottom 96 well plate (Thermo Fisher) or 293T-CLL-1 cells were seeded in a flat bottom plate in cell culture media (RPMI 1640, 10% FBS). On day 2, the fusion proteins #357, #330 and #321 were added at 0.2 μg/ml (20 ng/well) with serial 3 fold dilutions where indicated, then left to incubate at 37° C. for 1 hour using the cell culture incubator. […]
# On day 3, the plate was spun at 550 RCF for 5 minutes and rinsed with PBS then spun again to remove the PBS. […] The injector added 100 μl of Luciferase assay reagent per well, then the well was read immediately. The plate was then advanced to the next well for a repeat of the inject-then-read process. […]
# The % cell death (aka cytotoxicity) was calculated as follows:
# % killing=[1−luc reading (experimental wells)/luc reading (tumor cells without CAR T cells)]×100. […]
# To test cytoxicity, luciferase labeled Molm14 or U937 cells were targeted for cytotoxic killing using a CAR19 T cell preparation and the purified proteins #330, #410 and #440 added in a dose titration. […] The plates were read in a luminometer with an injector (Glomax Multi Detection System, Promega). […]
# [1] = ELISA, FMC63 coat, biotinylated CD33
# CD33, sequence (P20138 18-364): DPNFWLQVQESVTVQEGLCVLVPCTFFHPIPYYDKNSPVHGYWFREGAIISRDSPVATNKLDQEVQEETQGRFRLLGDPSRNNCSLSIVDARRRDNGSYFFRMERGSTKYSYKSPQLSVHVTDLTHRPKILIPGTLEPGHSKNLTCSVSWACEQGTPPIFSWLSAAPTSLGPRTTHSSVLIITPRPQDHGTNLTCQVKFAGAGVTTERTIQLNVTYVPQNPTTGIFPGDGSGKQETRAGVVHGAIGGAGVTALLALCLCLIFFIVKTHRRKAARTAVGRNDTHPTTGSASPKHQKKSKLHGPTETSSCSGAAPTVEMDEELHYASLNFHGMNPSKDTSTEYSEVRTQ
molecule,measurement,setting,value
B1,cytotoxicity on Molm14 cells,Molm14 cells,less potent
same,CD33 binding EC50 pM,CD33; [1],∞
same,CD33 binding EC50 ng/ml,CD33; [1],∞
same,cytotoxicity on U937 cells,U937 cells,highest cytotoxicity
B2,cytotoxicity on Molm14 cells,Molm14 cells,about equipotent
same,CD33 binding EC50,CD33; [1],2.1 ng/mL
same,ELISA binding to CD33,CD33; Table 10,binds equally well to both components
same,cytotoxicity on U937 cells,U937 cells,essentially the same activity
